Values of other authors, collected in patent US20250282866A1, “TREATMENT OF DISEASES RELATED TO ATP-BINDING CASSETTE TRANSPORTER 1 DYSFUNCTION USING TREM2 AGONISTS” (VIGIL NEUROSCIENCE, INC., priority 2020, published 2025).
Changes are numbered by the printed parent chain. Numbers in names are those of the source.

T1: human TREM2 (Homo sapiens, UniProt Q9NZC2)
T1 sequence (Q9NZC2 19-230): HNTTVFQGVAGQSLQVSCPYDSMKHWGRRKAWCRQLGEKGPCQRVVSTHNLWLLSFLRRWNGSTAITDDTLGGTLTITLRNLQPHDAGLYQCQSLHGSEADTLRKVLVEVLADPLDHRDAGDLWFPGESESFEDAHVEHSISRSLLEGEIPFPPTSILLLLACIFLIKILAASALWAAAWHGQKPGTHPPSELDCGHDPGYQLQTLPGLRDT

B1: V40: 6E7 variant: VH T30G, T58V, F110S; VL N56L, S93R (antibody, V domains shown)
VH: EVQLVQSGAEVKKPGESLKISCKGSGYSFGSYWIAWVRQMPGKGLEWMGIIYPGDSDVRYSPSFQGQVTISADKSISTAYLQWSSLKASDTAMYFCARQRTFYYDSSDYSDYWGQGTLVTVSS
VL: DIQMTQSPSSVSASVGDRVTITCRASQGISSWLAWYQQKPGKAPKLLIYAASSLQLGVPSRFSGSGSGTDFTLTISSLQPEDFATYFCQQADRFPRTFGQGTKLEIK
B2: V48: 6E7 variant: VH T30G, T58V, Q99M; VL N56T, F94L (antibody, V domains shown)
VH: B1 VH with Q99M, S110F
VL: B1 VL with L56T, R93S, F94L
B3: V49: 6E7 variant: VH T30N, I50T, Y60L, Q99S; VL L54R, F94Y (antibody, V domains shown)
VH: B1 VH with G30N, I50T, V58T, Y60L, Q99S, S110F
VL: B1 VL with L54R, L56N, R93S, F94Y
B4: V50: 6E7 variant: VH T30G, I50V, F110L; VL L54R, F94L (antibody, V domains shown)
VH: B1 VH with I50V, V58T, S110L
VL: B1 VL with L54R, L56N, R93S, F94L
B5: V51: 6E7 variant: VH T58V, Q99G, Y112N; VL L54R (antibody, V domains shown)
VH: B1 VH with G30T, Q99G, S110F, Y112N
VL: B1 VL with L54R, L56N, R93S
B6: V52: 6E7 variant: VH T30E, Q99G; VL N56R, S93R (antibody, V domains shown)
VH: B1 VH with G30E, V58T, Q99G, S110F
VL: B1 VL with L56R
B7: V60: 6E7 variant: VH S28H, T58V, F110S; VL N56R, Q89G (antibody, V domains shown)
VH: B1 VH with S28H, G30T
VL: B1 VL with L56R, Q89G, R93S
B8: V61: 6E7 variant: VH T30S, S61N, Q99G; VL Q55V, F94L (antibody, V domains shown)
VH: B1 VH with G30S, V58T, S61N, Q99G, S110F
VL: B1 VL with Q55V, L56N, R93S, F94L
B9: V62: 6E7 variant: VH T30G, S61A, D108G; VL N56R, Q89G (antibody, V domains shown)
VH: B1 VH with V58T, S61A, D108G, S110F
VL: B1 VL with L56R, Q89G, R93S
B10: V63: 6E7 variant: VH T30R, Q99S; VL N56R, S93R (antibody, V domains shown)
VH: B1 VH with G30R, V58T, Q99S, S110F
VL: B1 VL with L56R
B11: V64: 6E7 variant: VH T30Q, Q99G; VL Q55A, F94Y (antibody, V domains shown)
VH: B1 VH with G30Q, V58T, Q99G, S110F
VL: B1 VL with Q55A, L56N, R93S, F94Y
B12: V72: 6E7 variant: VH A35G, Q99G; VL Q55V, F94Y (antibody, V domains shown)
VH: B1 VH with G30T, A35G, V58T, Q99G, S110F
VL: B1 VL with Q55V, L56N, R93S, F94Y
B13: V73: 6E7 variant: VH T30G, S63G, Q99G; VL L54R, F94Y (antibody, V domains shown)
VH: B1 VH with V58T, S63G, Q99G, S110F
VL: B1 VL with L54R, L56N, R93S, F94Y
B14: V74: 6E7 variant: VH T30A, T58V, Q99G; VL N56L (antibody, V domains shown)
VH: B1 VH with G30A, Q99G, S110F
VL: B1 VL with R93S
B15: V75: 6E7 variant: VH Q99G; VL N56A, F94Y (antibody, V domains shown)
VH: B1 VH with G30T, V58T, Q99G, S110F
VL: B1 VL with L56A, R93S, F94Y
B16: V76: 6E7 variant: VH T30G, S63E, F110S; VL N56K (antibody, V domains shown)
VH: B1 VH with V58T, S63E
VL: B1 VL with L56K, T69R, R93S
B17: V84: 6E7 variant: VH S28G, F110S; VL A50G (antibody, V domains shown)
VH: B1 VH with S28G, G30T, V58T
VL: B1 VL with A50G, L56N, R93S

Biological target: T1, human TREM2
Settings: for Binding Signal (fold over 6E7 Parental antibody) 1st screen 110 nM or 10 nM: values printed without asterisk, concentration 110 nM or 10 nM (footnote a not given)

Binding Signal (fold over 6E7 Parental antibody) 1st screen 110 nM or 10 nM | Binding Signal (fold over 6E7 Parental antibody) 2nd screen 2 nM | Binding Signal (fold over 6E7 Parental antibody) 2nd screen 10 nM | Molecule
4.48 fold over 6E7 Parental antibod | 3.41 fold over 6E7 Parental antibod | 4.16 fold over 6E7 Parental antibod | B1
2.42 fold over 6E7 Parental antibod | 2.30 fold over 6E7 Parental antibod | 2.54 fold over 6E7 Parental antibod | B2
6.51 fold over 6E7 Parental antibod | 5.02 fold over 6E7 Parental antibod | 6.58 fold over 6E7 Parental antibod | B3
4.10 fold over 6E7 Parental antibod | 3.39 fold over 6E7 Parental antibod | 4.16 fold over 6E7 Parental antibod | B4
2.81 fold over 6E7 Parental antibod | 1.83 fold over 6E7 Parental antibod | 3.18 fold over 6E7 Parental antibod | B5
3.00 fold over 6E7 Parental antibod | 1.78 fold over 6E7 Parental antibod | 3.09 fold over 6E7 Parental antibod | B6
3.26 fold over 6E7 Parental antibod | 3.35 fold over 6E7 Parental antibod | 3.63 fold over 6E7 Parental antibod | B7
5.08 fold over 6E7 Parental antibod | 3.63 fold over 6E7 Parental antibod | 5.22 fold over 6E7 Parental antibod | B8
2.49 fold over 6E7 Parental antibod | 1.87 fold over 6E7 Parental antibod | 2.89 fold over 6E7 Parental antibod | B9
3.76 fold over 6E7 Parental antibod | 4.91 fold over 6E7 Parental antibod | 3.71 fold over 6E7 Parental antibod | B10
5.41 fold over 6E7 Parental antibod | 4.88 fold over 6E7 Parental antibod | 5.48 fold over 6E7 Parental antibod | B11
3.64 fold over 6E7 Parental antibod | 2.50 fold over 6E7 Parental antibod | 4.01 fold over 6E7 Parental antibod | B12
5.12 fold over 6E7 Parental antibod | 4.17 fold over 6E7 Parental antibod | 5.44 fold over 6E7 Parental antibod | B13
3.94 fold over 6E7 Parental antibod | 2.54 fold over 6E7 Parental antibod | 4.01 fold over 6E7 Parental antibod | B14
4.64 fold over 6E7 Parental antibod | 3.74 fold over 6E7 Parental antibod | 4.52 fold over 6E7 Parental antibod | B15
4.57 fold over 6E7 Parental antibod | 4.34 fold over 6E7 Parental antibod | 4.93 fold over 6E7 Parental antibod | B16
1.44 fold over 6E7 Parental antibod | 1.45 fold over 6E7 Parental antibod | 1.62 fold over 6E7 Parental antibod | B17
